Consider two substances from patent US20110064733A1.

The target in experiment [1] is Muc1 as expressed by DS6 negative & CM1 positive cell lines (KLE, OVCAR3, SKOV3), without the CA6 glycotope (human) (UniProt P15941). Put plainly: flow cytometry on OVCAR3 cells (DS6 negative). (In general: In flow cytometry, cells or beads pass a laser one at a time.)
For experiment [2] the target is unchanged. As to the kind of experiment: flow cytometry on SKOV3 cells (DS6 negative).
Experiment [3] shares this target. As to the kind of experiment: flow cytometry on KLE cells (DS6 negative).
The target is the same in experiment [4]. As to the kind of experiment: flow cytometry on SKOV3 cells.
The target is the same in experiment [5]. Put plainly: flow cytometry on KLE cells.
The target is the same in experiment [6]. As to the kind of experiment: flow cytometry on OVCAR3 cells.

In the case of murine anti-CA6 monoclonal antibody DS6, the MMF (maximum mean relative fluorescence) (relative fluorescence) in experiment [1] was 21.2; in experiment [2] it was 17.5; in experiment [3], 27.5.

As for CM1 antibody (Muc1 VNTR antibody), the MMF (maximum mean relative fluorescence) (relative fluorescence) in experiment [4] was determined as 49.4; in experiment [5], 562; in experiment [6], 192.
